Assay: label from the status in PepcDB records

Sequence | protein production
MKLAMIGFGQAGGKIVDKFLEYDKETGSGIVRSAVAVNTAKADLLGLEHIPEENRVLIGQARVKGHGVGADNELGAEIAEEDIDEVQGAIDNIPVHEVDAFLIVAGLGGGTGSGGSPVVAKHLKRIYTEPVYGLGVLPGSDEGGIYTLNAARSFQTFVREVDNLMVFDNDAWRQTGESVEGGYDHINEEIVRRFGVLFGAGEIEAGDNVAESVVDSSEIINTLDGGGVSTVGYASEDVEVSSGGGGLLSRFKGDDSSDDSMDTANTTNRITSLVRKAALGRLTLPCEIEGAERALLVMAGPPEHLNRKGIERGRKWLEEQTGSMEVRGGDYPTNAPKVAASILLAGVHNVPRIKELQQVAIEAQDNIDDIRNQSEDNLEDLVEDDEDELDPLF | failed
MKLDHNFSNQAIDAFIKISALSVLVLWCFSILKPFLLLMVWGGIIATALYPIVAFFSKKTALSESKVSIILTVIGVLLLLIPLVALSTGIYTSGTELFLGYQDGSIAIPKPKERMQDWPIIGHEAYSFMSLASSNLESLLFKYSAEVKVVAAKAASLVGSLGGGFIQFIVSTIIAGVFMANAAKCERAFILITNRLTGKHGEELIKLSKITIRSVVQGVIGVAVIQATMAGLGMAVVGISASVLGLWVFLVLVFAIIQLPPILILLPIIFYVFSVDTTTAGVLFAVWCVLVSSSDAILKPVLLSRGSHIPIIVILLGALGGMAMSGIVGLFVGAVVLSLTYQMFTVWLKNEAEETQNAKDNP | failed
MKLEAEAVAPSNIAIVKYWGKRDRELNLPLNSSLSISLDSLWVRSRVIFDESLDKDEVIINGKRLSENEVREYAGRVLRRFRDLYGKELFARVESTTNFPSSAGLASSAAGIAALTYASNAALGLGLSNRELSKIARVGSGSACRSMFGGFVKWNRGELESGDDSFCEEIFPPDHWPDLVDIIPIFGEEKKKVSSRTGMENTATSSALMRCRLQFIEETFNEVIDAIRTKNAGKFFQLTMRHSNSMHAVILDSWPPMNYLNEKSFRVMEWVVEFGKAAYTFDAGPNPHIFVLEKDVDEVLKFLNEIGSTKTIVSRVGKGPYLI | failed
MKLERQKLLAKVAYLYYMEGKSQSEIANELGIYRTTISRMLAKAREEGLVRIEISDFNPEIFQLESYFKSKYHLKDIEIVSSRKDSDTSEIEKDLAHVAAAMIRKKIKENDKVGIAWGRTLSKVVEAMRPHPVSQVSFVPLAGGPSHINARYHVNTLVYEMSRRFQGSCTFINATLVQENANLAKGILTSKYFEGLMDNWEKLDVAIVGVGGKPKSNEQQWLDLLNQDDFQCLDEEAAVGEITCRFFNHSGDPVNQHLAKRTIGITLEQLQKVPNRIAVAHGNYKAAALLAVLKKGYINHLVTDFSTALNILRLDKDTFVDTIYQKS | not failed
MKLESNAFEKAFSSDPAPLGLAGFAFTTFLLSFINAGLIPASGVNVVVPLAIAYGGLAQLITGSWEMRRGNNFGFTAFTSYGSFWIFYALMVILADLHIINALPAVAVGWALILWGIFTLYMWGGAMMASMSLNLTFLFLWLTFVVLGLGAIYSSVALTHAGGYLGILSAFFAAYTSFAIIINSMKPGTIPVGPGMFHKKAGK | failed
MKLFKELEETKEQVIKMAKLVQEAIDKATEALNKQNVELAEEVIKGDDTIDLLEVDIERRCIRMIALYQPEAGDLRMIMGIYKIVSDLERMGDEAENIAERAILLAEEPPLKPYVNINFMSEIVKEMVNDSVISFIQQDTLLAKKVIEKDDTVDELYHQLERELMTYVLEDPRNIKRAMHLSFVARHYERIADHAENVAEAAIYLSEGEIVKHQHIKEKGE | not failed
MKLFSSGRKTPTSSPASSHAGAMDETVGVTSTSEAANVATQPVPTPVEDVPNGVRTAAGWCWRMIVIAAFIYGLYQVLHAASEVSVPVAVALMLTAAMWPLANWLSRHHIHRGIASGICLLLLVILVGGVFTLVGAQIALQWRQLGDQSVASFKQALQWLAKSPLHTNEAQLTHLMQKAEAAMAGSQGRIASTAAAAGSQIGRFGAGLVMALFATFFFVYEGDKLAEKSAVLIPREHRAAILDAAKRGWVALVAYVRAAVIVAFVDGLGAGIGAAIIGSSMSVAIGALTFILAFVPIVGALTAGVVAVGVVLVTLGFFKAFIMLIVFVAVMQIEGHVLQPFLLGKAVSIHPLIVLLGIAVGAIISGIVGALFAIPIVAFGVAFIKALNPETPANEVPPNHDDLAAEHT | failed
MKLIKNGKVLQNGELQQADILIDGKVIKQIAPAIEPSNGVDIIDAKGHFVSPGFVDVHVHLREPGGEYKETIETGTKAAARGGFTTVCPMPNTRPVPDSVEHFEALQKLIDDNAQVRVLPYASITTRQLGKELVDFPALVKEGAFAFTDDGVGVQTASMMYEGMIEAAKVNKAIVAHCEDNSLIYGGAMHEGKRSKELGIPGIPNICESVQIARDVLLAEAAGCHYHVCHVSTKESVRVIRDAKRAGIHVTAEVTPHHLLLTEDDIPGNNAIYKMNPPLRSTEDREALLEGLLDGTIDCIATDHAPHARDEKAQPMEKAPFGIVGSETAFPLLYTHFVKNGDWTLQQLVDYLTIKPCETFNLEYGTLKENGYADLTIIDLDSEQEIKGEDFLSKADNTPFIGYKVYGNPILTMVEGEVKFEGDK | failed
MKLIKVILSSISQVVLINNPYTGLFILIGLFAVNWKVGISAMIASVMTWILAPYMNYTKEEIESGLAGFNPVLTAIALTLFLDSNWSGILITFVATILTLPIGAAVREVLKPHKIAFLTSPYVIMTWITLLIPNQLKTLHTQIDIIPEHIEKVSLNNDHTRVHFFQSVLDGFGQIFLMPSIIGGLLILIGIFIGSKKAGIVSIIANIIGFLIIILLGGDYSSINEGIFGYNVVLSAIALGVTFETAIHSYLAMILGIVLTAFIHLGLSTLLAPLGLPTLTWPFIFATWIMLFAGIKNQSV | failed
MKLKEVTEGKVRIFVPDPTGYMVEGKFDPSWAPVFYNPKMTFNRDLSVIVVSILKPKIIVDALSATGIRGIRYYVESWKSEQLILNDKNPNATSLIQINAKNNGIENAKIYNKDANALLYEVKSDYIDIDPFGSPAPFILSSLNAATRNGIVAFTATDLSPLEGSSPTSCRRKYDAINHKLSSSKELGLRVLIGKIIREAAILEKTVYPLFSFYADYYYRLFVRVENGARKADDNINKHLKYFGECPRCGFQTFVEENCKTKCPVCGEIFSIIGPLYIGPLYSMEFLKRIMDLYSNFNYLTSFNRIQKLLNVIEKEARFKNVFYNISKLASKLKISAIPPIESILECLGDASRTHFAPTGIRTDKEYEEITKCIKSLR | failed
MKLKGKGIGKVVVEGEVIVSRKPLSFLGGVDPETGTITDPESDIKGESITGKILVFPKGKGSTVGSYILYALSKNGKGPKAIIVEEAEPIVTAGAIISGIPLITNVDISKLKTGMRVRINPQEGEVEILAEGNLLEHHHHHH | failed
MKLKSYILVGYIISTLLTILVVFWAVQKMLIAKGEIYFLLGMTIVASLVGAGISLFLLLPVFTSLGKLKEHAKRVAAKDFPSNLEVQGPVEFQQLGQTFNEMSHDLQVSFDSLEESEREKGLMIAQLSHDIKTPITSIQATVEGILDGIIKESEQAHYLATIGRQTERLNKLVEELNFLTLNTARNQVETTSKDSIFLDKLLIECMSEFQFLIEQERRDVHLQVIPESARIEGDYAKLSRILVNLVDNAFKYSAPGTKLEVVAKLEKDQLSISVTDEGQGIAPEDLENIFKRLYRVETSRNMKTGGHGLGLAIARELAHQLGGEITVSSQYGLGSTFTLVLNLSGSENKA | failed
MKLLAITSCPNGIAHTYMAAENLQKAADRMGVQMKVETQGGIGVENELTEQEIREADAIIIAADRSVNKDRFIGKKLLAVGVQEGIRKPEELIQKAIGGDIPVYRSAVKTEASAQTEKKQNPIYRHLMNGVSFMVPFIVVGGLLIAVALTLGGEKTPKGLVIPDDSFWKTIEQIGAASFSFMIPILAGYIAYSIADKPGLVPGMIGGYIAATGSFYGSGSGAGFLGGIIAGFLAGYAALAIKKLKVPKAIQPIMPIIVIPVVSSLIVGLAFVLLIGAPVAQIFESLTVWLAGMQGSSSILLALILGAMISFDMGGPVNKVAFLFGSAMIGEGNYEIMGPIAVAICIPPIGLGIATFLGKRKFQAQEREMGKAAFTMGLFGITEGAIPFAAQDPLRVIPSIMAGSMTGSVIAMIGNVGDRVAHGGPIVAVLGAVDHVLMFFIAVIAGSLVTSLLVNVLKKEVTAAPAGISEAAAGNDIPQPNIEIEAESKKIEKPEITKLTDIIDTDLIEPHLSGDTRDDIIDEMIQKLSRKGVLHSESEFKQAIINRELEGTTAIGMNIAIPHGKSDAVKKPSVAFGIKRSGVDWRSLDGTDAKLIFMIAVPKESGGNEHLKLLQMLSRKLMDDTYRDKLLSAQTKEEAYKLLDEII | failed
MKLNATYIKIRDKWWGLPLFLPSLILPIFAHINTFAHISSGEVFLFYLPLALMISMMMFFSWAALPGIALGIFVRKYAELGFYETLSLTANFIIIIILCWGGYRVFTPRRNNVSHGDTRLISQRIFWQIVFPATLFLILFQFAAFVGLLASRENLVGVMPFNLGTLINYQALLVGNLIGVPLCYFIIRVVRNPFYLRSYYSQLKQQVDAKVTKKEFALWLLALGALLLLLCMPLNEKSTIFSTNYTLSLLLPLMMWGAMRYGYKLISLLWAVVLMISIHSYQNYIPIYPGYTTQLTITSSSYLVFSFIVNYMAVLATRQRAVVRRIQRLAYVDPVVHLPNVRALNRALRDAPWSALCYLRIPGMEMLVKNYGIMLRIQYKQKLSHWLSPLLEPGEDVYQLSGNDLALRLNTESHQERITALDSHLKQFRFFWDGMPMQPQIGVSYCYVRSPVNHIYLLLGELNTVAELSIVTNAPENMQRRGAMYLQRELKDKVAMMNRLQQALEHNHFFLMAQPITGMRGDVYHEILLRMKGENDELISPDSFLPVAHEFGLSSSIDMWVIEHTLQFMAENRAKMPAHRFAINLSPTSVCQARFPVEVSQLLAKYQIEAWQLIFEVTESNALTNVKQAQITLQHLQELGCQIAIDDFGTGYASYARLKNVNADLLKIDGSFIRNIVSNSLDYQIVASICHLARMKKMLVVAEYVENEEIREAVLSLGIDYMQGYLIGKPQPLIDTLNEIEPIRESA | failed
MKLNRAIGVIDSGVGGLTVAKELIRQLPKERIIYLGDTARCPYGPRSREEVRQFTWEMTEHLLDLNIKMLVIACNTATAVVLEEMQKQLPIPVVGVIHPGSRTALKVTNTYHVGIIGTIGTVKSGAYEEALKSINNRVMVESLACPPFVELVESGNFESEMAYEVVRETLQPLKNTDIDTLILGCTHYPILGPVIKQVMGDKVQLISSGDETAREVSTILYHSKMLNEGEEQSDHLFLTTGKIGLFKEIASKWFGQPIENVKHIHLEKE | failed
MKLRTQISILLIVFAVLLSGIVFAGFQLNKESVTGRQLDETTQHSERIAAGLDTRLKGLKRTVRLQATNPAIAAHGTPQQHYALKTMVNETMFNGVSVIHRNGTMTGIAAGLDPETRSELIGSDFSDRHYFQRARNGETYISAPVVADSGNYIVTISTPIYRDGAVVGTLNAALHLQDSSIFRMASKTANRDSSVFIRTQSGNQIYNRSAHLSSDPVTANATVNETGWIVQVQTSRNVLAGDLRTVTIYQLGGIGLVLALISGFGSILYTQILRYHRQLVRGFEALQRQEYGQQVAEEATGDWGQIFTAFNELSQTLAEYEEERVKHRNELQQERDRFRRLFQSIPEPAVVVEYTGNKTLIHNVNEAFEETFGYEASNAVGGDINDFIVPDGSLEEAESIDQLSSSGKQVTHEVRREAADGKRDFLLRSTPAVDGEDEVYFGVYIDITDRKQQERELTETNSVLSSVLDNMPVGILIEDADRTITTANKKLLDILDVSLTPSGLIGCEYAEIAETLKTQFADPDQFNETVNKIHSTRDAVFDEELLMADGRILARSYVSYSLPDGTGNIWLYRDITKNRQRERKLRETLEKTQKLIQAESIDEAATIAVEIANQTLSFPLSSVHLERKDGELEPAAITDAFEEGVGDTPVYQRTADNSSIDKLVWDVYTSGETRVLTDTGAEIPETISGMPSSGGIIQPMTNHGVLVTLGDSPNRFDEFDQYLVELLGAILATTLDRINQKQQIESQRDNLDLLNQIVRHDIRNDLQILLGRLDLLAERANDAQSEHVNAALRCAENAVELTQSARELSEVLLQNGTDSKPISLNRVVRQQIEEIRSANTDAEITINGSIPDVMIRANEMFDSVIRNLLKNAIQHNDKQDPEITISAIDQKEYVQLRIADNGPGVRDAQKESIFGKGEKELESSGTGIGLYLVSTLIESYGGDVWVEDNNPRGAVFVIELVKDS | failed
